This note sets out measurements from US20210139588A1.

Experiment [1] concerns the target N49Q mutant PD-1 expressed on 293T cells (PD-1-Flag) (human) (UniProt Q15116). Nature of the experiment: flow cytometry on 293T cells expressing the PD-1 form, labeled secondary antibody; control antibody. (In general: In flow cytometry, cells or beads pass a laser one at a time.)
Experiment [2] concerns the target wild type (glycosylated) PD-1 expressed on 293T cells (PD-1-Flag) (human) (UniProt Q15116). Described as above.
The target in experiment [3] is 4NQ mutant (unglycosylated) PD-1 expressed on 293T cells (PD-1-Flag) (human) (UniProt Q15116). The experiment is described as above.
Experiment [4] concerns the target N116Q mutant PD-1 expressed on 293T cells (PD-1-Flag) (human) (UniProt Q15116). Described as above.
The target of experiment [5] is N58Q mutant PD-1 expressed on 293T cells (PD-1-Flag) (human) (UniProt Q15116). Described as above.
In experiment [6] the target is N74Q mutant PD-1 expressed on 293T cells (PD-1-Flag) (human) (UniProt Q15116). Described as above.
Experiment [7] has as its target N49Q mutant PD-1 expressed on 293T cells (PD-1-Flag) (human) (UniProt Q15116). The experiment can be described thus: flow cytometry on 293T cells expressing the PD-1 variant, anti-mouse IgG-PE secondary, DAPI-negative population gated; percent of cells right of the dashed gate; 293T blank cells give 1.69.
The target in experiment [8] is wild type (glycosylated) PD-1 expressed on 293T cells (PD-1-Flag) (human) (UniProt Q15116). The experiment is described as above.
Experiment [9] concerns the target 4NQ mutant (unglycosylated) PD-1 expressed on 293T cells (PD-1-Flag) (human) (UniProt Q15116). The experiment is described as above.
Experiment [10] concerns the target N116Q mutant PD-1 expressed on 293T cells (PD-1-Flag) (human) (UniProt Q15116). The description is as above.
The target in experiment [11] is N58Q mutant PD-1 expressed on 293T cells (PD-1-Flag) (human) (UniProt Q15116). Described as above.
Experiment [12] concerns the target N74Q mutant PD-1 expressed on 293T cells (PD-1-Flag) (human) (UniProt Q15116). The description is as above.

N74Q mutant PD-1 expressed on 293T cells (PD-1-Flag) (human), sequence (Q15116 25-288 N74Q): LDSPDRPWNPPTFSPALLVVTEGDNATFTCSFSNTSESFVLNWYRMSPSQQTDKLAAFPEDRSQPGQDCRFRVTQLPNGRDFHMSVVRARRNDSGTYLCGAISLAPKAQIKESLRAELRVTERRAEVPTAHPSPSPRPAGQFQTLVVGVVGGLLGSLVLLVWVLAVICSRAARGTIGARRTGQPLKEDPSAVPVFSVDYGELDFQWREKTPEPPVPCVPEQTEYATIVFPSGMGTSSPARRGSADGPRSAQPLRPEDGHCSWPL
N58Q mutant PD-1 expressed on 293T cells (PD-1-Flag) (human), sequence (Q15116 25-288 N58Q): as the sequence (Q15116 25-288 N74Q) above, with N34Q, Q50N counted along it
wild type (glycosylated) PD-1 expressed on 293T cells (PD-1-Flag) (human), sequence (Q15116 25-288): as the sequence (Q15116 25-288 N74Q) above, with Q50N counted along it
N49Q mutant PD-1 expressed on 293T cells (PD-1-Flag) (human), sequence (Q15116 25-288 N49Q): as the sequence (Q15116 25-288 N74Q) above, with N25Q, Q50N counted along it
N116Q mutant PD-1 expressed on 293T cells (PD-1-Flag) (human), sequence (Q15116 25-288 N116Q): as the sequence (Q15116 25-288 N74Q) above, with Q50N, N92Q counted along it
4NQ mutant (unglycosylated) PD-1 expressed on 293T cells (PD-1-Flag) (human), sequence (Q15116 other isoform, or with tags, fused parts or gaps mutant): as the sequence (Q15116 25-288 N74Q) above, with N25Q, N34Q, N92Q counted along it

With control mouse IgG (antibody), the MFI in [1] was 31 MFI; in experiment [2], 52 MFI; in [3], 26 MFI; in [4] it was 28 MFI; in [5], 106 MFI; in experiment [6] it was 26 MFI. The Unit (%) (cells in the positive gate) stood at 2.73% in [7]; 10.7% in experiment [8]; 1.53% in experiment [9]; 2.37% in experiment [10]; 17.6% in experiment [11]; 3.25% in [12].
